In the supplement of paper PMC11865577:

Assays:
Test in all cases: pull-down binding Z-score (relative to library population); higher = stronger binding
Conditions in all cases: RNA library: Library-2
[1] = test system: TO-3-N3-2 (biotin conjugate)
Method in brief: (§1)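 Biotin-conjugated small molecule (100 pmol) on streptavidin beads was incubated with 1 μg of heat-folded Cy5- or Cy3-end-labelled RNA library in phosphate/NaCl/KCl buffer at 25 °C for 60 min. Following three washes, RNA was eluted with hot SDS and hybridised at 55.5 °C for 20 h to a DNA barcode microarray. The binding value is a Z-score computed from the library mean and standard deviation, after subtraction of beads without compound and averaging of barcoded replicate probes with the highest and lowest excluded.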

TO-N3 (biotin conjugate) = test system: TO-N3 (biotin conjugate)
Method in brief: as §1

[2] = test system: TO-3-N3 (biotin conjugate)
Method in brief: as §1

[3] = test system: TO-N3-2 (biotin conjugate)
Method in brief: as §1

Sequence	pull-down binding Z-score [1]	pull-down binding Z-score (TO-N3 (biotin conjugate))	pull-down binding Z-score [2]	pull-down binding Z-score [3]
CCACGCUCGUUCCGACACCGGAACGGCACUCGACACCGAGUGCAGCGUGG [3-way model-3_NoName]	1.41	1.51	1.17	1.93
CCACUUGGCUAUGUAACACAUGGCUUAAAUUUGG [DMSMaPseq_invitro_SARS-CoV-2_Motif_85]	-0.0708	0.127	0.386	-0.575
CCAGAGAAGAAACUGG	0.0828	0.417	0.466	0.486
CCAGUACCAGAGGUGAAAAUACUCAAUAAUUUGGGUGUGGACAUUGCUGCUAAUACUGUG	0.266	1.18	1.32	-0.0208
CCAGUAUCUGAAUUACUUACACCACUGG [SHAPE_invivo_SARS-CoV-2_Motif_58]	0.119	0.688	0.91	-0.0924
CCAGUAUCUGAAUUACUUACACCACUGGGCAUUGAUUUAGAUGAGUGGAGUAUGGCUACAUACUACUUAUUUGAUGAGUCUGGUGAGUUUAAAUUGG	-0.468	-0.752	-0.742	-0.946
CCAGUAUGGUGG [IAV_invivo_PB1_2_Motif_36+IAV_invivo_PB1_2_Motif_36]	-0.471	-0.423	-0.26	-0.372
CCAUAAUGAAUCUGG [DMSMaPseq_invitro_SARS-CoV-2_Motif_27]	-0.198	-0.345	-0.322	-0.529
CCAUGGCAGAUUCCAACGGUACUAUUACCGUUGAAGAGCUUAAAAAGCUCCUUGAACAAUGGAACCUAGUAAUAGGUUUCCUAUUCCUUACAUGG [DMSMaPseq_invitro_SARS-CoV-2_Multi_81_ComplexLevel_1]	-0.516	-0.621	-0.195	-0.419
CCAUGGGACAGGAACAGGAUACACCAUGG [IAV_invivo_PB1_2_Motif_4+IAV_invivo_PB1_2_Motif_4]	0.154	-0.056	-0.411	0.927
CCAUUCUUCGUAAGGGUGG [DMSMaPseq_invitro_SARS-CoV-2_Motif_28]	-0.245	-0.198	0.0314	-0.66
CCAUUUCAUCUUUUAAAUGG	-0.38	-0.985	-0.598	-0.946
CCAUUUGCUAUGCAAAUGG	-0.677	-1.05	-0.562	-1.56
CCCAAGUCAUGAAGGAGAGGG [IAV_invivo_PA_3_Motif_13+IAV_invivo_PA_3_Motif_13]	0.497	0.816	0.689	0.652
CCCAAUCAUGAAGGG [IAV_invivo_PB1_2_Motif_24+IAV_invivo_PB1_2_Motif_24]	-0.407	-0.488	-0.131	-0.373
CCCAAUCGUGGCGUGUCGGCCUGCUUCGGCAGGCACUGGCGCCG [Pepper530]	0.0777	0.516	0.37	1.13
CCCAAUGUUGUUAAACCACACGAAAAGGG [IAV_invivo_PA_3_Motif_15+IAV_invivo_PA_3_Motif_15]	0.104	0.504	0.621	-0.323
CCCAGAUGAAGGCACAGCUGGAGUGGAGUCCGCUGUUCUGAGGGGAUUCCUCAUUCUGGG [IAV_invivo_PB2_1_Motif_33+IAV_invivo_PB2_1_Motif_33]	0.166	0.671	-0.0325	1.54
CCCAGUGCGGGG [IAV_invivo_NP_5_Motif_5+IAV_invivo_NP_5_Motif_5]	-0.664	-1.12	-0.794	-0.984
CCCAUCCGUGGGUGGG [IAV_invivo_NA_6_Motif_4+IAV_invivo_NA_6_Motif_4]	-0.239	-0.897	-0.525	-0.95

Sequence	pull-down binding Z-score [1]	pull-down binding Z-score (TO-N3 (biotin conjugate))	pull-down binding Z-score [2]	pull-down binding Z-score [3]
CCCAUUGGAGAGUCCCCCAAAGGAGUGGAGGAAAGUUCCAUUGGG [IAV_invivo_PA_3_Motif_26+IAV_invivo_PA_3_Motif_26]	-0.0971	-0.0467	-0.0565	0.298
CCCCAAAAGAAAUUAUCUUCUUAGAGGG	-0.623	0.286	-0.165	0.109
CCCCACUACAAUUGGGG [IAV_invivo_HA_4_Motif_4+IAV_invivo_HA_4_Motif_4]	-0.517	-0.0989	0.245	-1.27
CCCCAGGGAUGCAAAUAAGGGG [IAV_invivo_PB1_2_Motif_14+IAV_invivo_PB1_2_Motif_14]	0.163	-0.0747	0.0403	0.241
CCCCGGCCCCGGCCCCGGCCCCGG [r(CCCCGG)4]	0.272	0.747	0.661	1.48
CCCGGAAAUAGCAGGAAGACCCAAAGUAAGAGAUCAAGCUGGG [IAV_invivo_HA_4_Motif_10+IAV_invivo_HA_4_Motif_10]	0.505	-0.157	-0.309	0.433
CCCUAAGACUAAAAAUGUUACAAAAGAAAAUGACUCUAAAGAGGGUUUUUUCACUUACAUUUGUGGG [DMSMaPseq_invitro_SARS-CoV-2_Motif_371]	-0.271	-1.03	-0.845	-0.589
CCCUGAACACAAUGACCAAAGAUGCUGAGAGAGGG [IAV_invivo_PB1_2_Motif_12+IAV_invivo_PB1_2_Motif_12]	0.103	0.143	-0.218	0.884
CCGAAAUUAUGUCUUUACUGGUUAUCGUGUAACUAAAAACAGUAAAGUACAAAUAGG	-0.0158	-0.399	-0.303	-0.428
CCGAAUACCAUAAUGAAUCUGGCUUGAAAACCAUUCUUCGUAAGGGUGGUCGCACUAUUGCCUUUGG [DMSMaPseq_invitro_SARS-CoV-2_Multi_5_ComplexLevel_1]	-0.063	-0.257	-0.576	0.178
CCGGUAAGGACGAUACUUACCUG [U1snRNP5ss-23]	-0.205	0.0948	0.363	-0.181
CCUAAACGAACAUGAAAUUUCUUGUUUUCUUAGG	-0.593	-1.08	-0.979	-0.729
CCUAAAGUGAAGUAUUUAUACUUUAUUAAAGG [DMSMaPseq_invitro_SARS-CoV-2_Motif_232]	-0.181	0.411	0.463	-0.916
CCUAAUGGAUGG [IAV_invivo_NA_6_Motif_15+IAV_invivo_NA_6_Motif_15]	-0.746	-0.777	-0.555	-0.501
CCUACUAAAAAGG	0.2	0.766	0.907	-0.0122
CCUACUGAUGG [IAV_invivo_PA_3_Motif_12+IAV_invivo_PA_3_Motif_12]	-0.207	-0.319	0.0894	-0.632
CCUAUACUGUUACUAGAUCAGGCAUUAGUGUCUGAUGUUGGUGAUAGUGCGG [DMSMaPseq_invitro_SARS-CoV-2_Motif_147]	0.0824	0.0062	0.0141	-0.184
CCUAUCAAUGG [IAV_invivo_PB2_1_Motif_26+IAV_invivo_PB2_1_Motif_26]	-0.212	0.11	0.191	-0.376
CCUCGUACAAAAUUUUCAAGAUCGAAAAGGGG [IAV_invivo_NA_6_Motif_10+IAV_invivo_NA_6_Motif_10]	0.159	-0.362	-0.278	-0.605
CCUCUAAAAGCCCCAAAAGAAAUUAUCUUCUUAGAGGGAGAAACACUUCCCACAGAAGUGUUAACAGAGG	-0.139	-0.162	-0.556	0.314

Sequence	pull-down binding Z-score [1]	pull-down binding Z-score (TO-N3 (biotin conjugate))	pull-down binding Z-score [2]	pull-down binding Z-score [3]
CCUCUGACUAAGGGG [IAV_invivo_M1_M2_7_Motif_4+IAV_invivo_M1_M2_7_Motif_4]	-0.414	-0.504	-0.159	-1.25
CCUCUUGAGUGCAUUAAAGACCUUCUAGCACGUGCUGGUAAAGCUUCAUGCACUUUGUCCGAACAACUGGACUUUAUUGACACUAAGAGG [SHAPE_invitro_SARS-CoV-2_Multi_2_ComplexLevel_1]	-0.0693	0.899	0.756	0.844
CCUGAAUCUUGG [IAV_invivo_PB1_2_Motif_21+IAV_invivo_PB1_2_Motif_21]	-0.491	-0.925	-0.834	-0.502
CCUGACUUAAAUGGUGAUGUGGUGGCUAUUGAUUAUAAACACUACACACCCUCUUUUAAGAAAGG	0.00798	-0.206	-0.161	-0.275
CCUGCACCACGCACAUUGCUAACUAAGG [SHAPE_invitro_SARS-CoV-2_Motif_318]	-0.173	-0.204	-0.429	0.0122
CCUGCCUGCCUGCCUG [r(CCUG)4]	0.0557	0.872	0.588	0.703
CCUGGUCAUGCAGAUCUCAGUGCCAAGGAGGCACAGGAUGUAAUCAUGGAAGUUGUUUUCCCUAACGAAGUGGGAGCCAGG	-0.23	-0.414	-0.749	0.44
CCUGUGAACAGAUUGCUGACUCCCAGCAUCGGUCUCAUAGG [IAV_invivo_M1_M2_7_Motif_10+IAV_invivo_M1_M2_7_Motif_10]	-0.605	-0.943	-0.767	-0.458
CCUUACCCAGAUCCAUCAAGAAUCCUAGGGGCCGG	0.14	0.876	0.842	0.308
CCUUAUAAUUCACAGAAUGCUGUAGCCUCAAAGAUUUUGGGACUACCAACUCAAACUGUUGAUUCAUCACAGG [DMSMaPseq_invitro_SARS-CoV-2_Motif_319]	-0.324	-0.341	-0.541	0.0157
CCUUCACACUCAAAGGCGGUGCACCAACAAAGGUUACUUUUGGUGAUGACACUGUGAUAGAAGUGCAAGG [SHAPE_invitro_SARS-CoV-2_Motif_51]	-0.155	-0.605	-0.728	-0.0884
CCUUCACUGUAGAAAAAGG [SHAPE_invivo_SARS-CoV-2_Motif_423]	-0.29	-0.772	-0.468	-0.52
CCUUGCACCUAAUAUGAUGGUAACAAACAAUACCUUCACACUCAAAGGCGGUGCACCAACAAAGGUUACUUUUGGUGAUGACACUGUGAUAGAAGUGCAAGG [SHAPE_invivo_SARS-CoV-2_Multi_7_ComplexLevel_1]	-0.454	-0.857	-0.657	-0.526
CCUUGCGAAAGGAGAGAAGGCUAAUGUGCUAAUUGGGCAAGG [IAV_invivo_PB2_1_Motif_34+IAV_invivo_PB2_1_Motif_34]	0.584	0.291	-0.245	0.837
CCUUGUAGGUUUGUUACAGACACACCUAAAGG	-0.655	-0.262	-0.369	-0.614
CCUUUAGUACCUUUCUGGAUAACAAUUGCUUAUAUCAUUUGUAUUUCCACAAAGCAUUUCUAUUGG	-0.843	-1.06	-0.884	-0.78
CGAGUCUCUGAAACUCUACAGAGAUUCG [IAV_invivo_NS1_NEP_8_Motif_12+IAV_invivo_NS1_NEP_8_Motif_12]	-0.606	-0.524	-1	-0.636
CGCAGGGAAUGGAUAAUCUUGCCUGCG	-0.153	-0.607	-0.486	-0.759
CGGAUUCUGAAAGAAGAAUCCG [IAV_invivo_NS1_NEP_8_Motif_5+IAV_invivo_NS1_NEP_8_Motif_5]	-0.255	0.0717	0.432	-0.902
CGGCAUCAUAUGGGUUGCAACUGAGGGAGCCUUGAAUACACCAAAAGAUCACAUUGGCACCCGCAAUCCUGCUAACAAUGCUG [SHAPE_invitro_SARS-CoV-2_Motif_522]	0.0568	-0.253	-0.511	0.334
